# Source: publication PMC7616679 (Nature, 2024)
# T1: Recombinant Ce C19L1 full-length protein, untagged (C. elegans, UniProt O16216 1-533)
# T1 sequence: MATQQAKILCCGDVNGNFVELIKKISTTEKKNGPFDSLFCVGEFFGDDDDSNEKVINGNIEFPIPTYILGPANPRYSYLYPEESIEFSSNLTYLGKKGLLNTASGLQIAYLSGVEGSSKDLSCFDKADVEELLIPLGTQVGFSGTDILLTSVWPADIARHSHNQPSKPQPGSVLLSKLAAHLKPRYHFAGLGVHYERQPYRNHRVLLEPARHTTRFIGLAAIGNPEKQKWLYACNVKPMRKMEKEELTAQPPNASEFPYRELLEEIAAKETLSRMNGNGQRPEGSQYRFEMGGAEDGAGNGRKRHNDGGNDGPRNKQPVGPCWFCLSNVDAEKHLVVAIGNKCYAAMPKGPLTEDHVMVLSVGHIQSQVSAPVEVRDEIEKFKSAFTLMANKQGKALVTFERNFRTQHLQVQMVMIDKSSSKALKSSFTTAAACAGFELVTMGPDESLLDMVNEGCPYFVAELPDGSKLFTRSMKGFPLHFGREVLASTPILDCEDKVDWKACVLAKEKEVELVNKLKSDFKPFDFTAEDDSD
# T2: Recombinant Ce C19L1(1-277), untagged (C. elegans, UniProt O16216 1-277)
# T2 sequence: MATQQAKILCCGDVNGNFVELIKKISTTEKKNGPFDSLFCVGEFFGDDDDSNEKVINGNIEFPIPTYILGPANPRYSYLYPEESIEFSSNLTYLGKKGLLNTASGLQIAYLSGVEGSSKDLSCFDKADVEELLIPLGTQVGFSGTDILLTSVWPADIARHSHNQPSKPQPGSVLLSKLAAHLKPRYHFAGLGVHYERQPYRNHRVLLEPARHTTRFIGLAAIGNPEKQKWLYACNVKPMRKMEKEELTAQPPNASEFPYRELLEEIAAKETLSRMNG
# How the values were obtained:
# cryo-EM structure = biological target: the molecule itself; assay: cryo-EM structure
# [1] = biological target: T1, Recombinant Ce C19L1 full-length …; assay: pull-down
# [2] = biological target: Recombinant Ce DHX15 (10x-His-FLAG-3C-ceDHX15) (C. elegans, UniProt Q20875 1-739); assay: pull-down
# [3] = biological target: T2, Recombinant Ce C19L1(1-277), untagged; assay: pull-down
# Sequence of Recombinant Ce DHX15 (10x-His-FLAG-3C-ceDHX15) (Q20875 whole entry): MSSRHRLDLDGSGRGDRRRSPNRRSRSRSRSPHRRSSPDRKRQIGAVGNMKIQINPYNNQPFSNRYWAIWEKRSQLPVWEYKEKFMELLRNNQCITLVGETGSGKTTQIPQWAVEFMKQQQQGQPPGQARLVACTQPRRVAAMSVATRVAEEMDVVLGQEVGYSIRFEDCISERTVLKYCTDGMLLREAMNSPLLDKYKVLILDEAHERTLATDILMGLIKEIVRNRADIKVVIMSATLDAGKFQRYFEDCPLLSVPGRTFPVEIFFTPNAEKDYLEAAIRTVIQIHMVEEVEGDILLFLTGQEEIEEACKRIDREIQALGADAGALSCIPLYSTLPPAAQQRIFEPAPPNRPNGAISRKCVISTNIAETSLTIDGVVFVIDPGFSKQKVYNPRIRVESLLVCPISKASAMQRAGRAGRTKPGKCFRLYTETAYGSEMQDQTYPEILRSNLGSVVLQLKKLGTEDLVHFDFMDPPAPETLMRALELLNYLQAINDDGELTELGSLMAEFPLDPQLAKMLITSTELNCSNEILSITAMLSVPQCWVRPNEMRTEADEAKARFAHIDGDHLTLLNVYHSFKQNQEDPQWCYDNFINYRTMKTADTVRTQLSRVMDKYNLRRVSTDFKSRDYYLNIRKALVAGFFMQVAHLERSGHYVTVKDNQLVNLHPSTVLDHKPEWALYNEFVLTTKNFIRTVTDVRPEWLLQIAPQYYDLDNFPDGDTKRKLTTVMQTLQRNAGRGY
binder,measurement,setting,value
"3xFLAG-PRP19 (C. elegans, prp-19) (natural protein) MSFVCGISGELTEDPVVSQVSGHIFDRRLIVKFIAENGTDPISHGELSEDQLVSLKSGGTGSAPRNVSGTSIPSLLKMLQDEWDTVMLNSFSLRQQLQIARQELSHSLYQHDAACRVISRLSKELTAAREALSTLKPHTSAKVDDDVSIDESEDQQGLSEAILAKLEEKSKSLTAERKQRGKNLPEGLAKTEELAELKQTASHTGIHSTGTPGITALDIKGNLSLTGGIDKTVVLYDYEKEQVMQTFKGHNKKINAVVLHPDNITAISASADSHIRVWSATDSSSKAIIDVHQAPVTDISLNASGDYILSASDDSYWAFSDIRSGKSLCKVSVEPGSQIAVHSIEFHPDGLIFGTGAADAVVKIWDLKNQTVAAAFPGHTAAVRSIAFSENGYYLATGSEDGEVKLWDLRKLKNLKTFANEEKQPINSLSFDMTGTFLGIGGQKVQVLHVKSWSEVVSLSDHSGPVTGVRFGENARSLVTCSLDKSLRVFSF",stoichiometry N,cryo-EM structure,4
fluorescein-EDEKNKLSAKILKAEMKGDTDLVKKLKRKLESM-biotin [ceC19L2(75-106)-wildtype peptide],binding result,[1],binds
fluorescein-SMNKGNISFVRGAGKTVQQNTTENPDEIDLD-biotin [ceSYF1(788-818)-wildtype peptide],binding result,[2],binds
same,binding result,[3],binds
